Laboratory results taken from article PMC9198273.
Positions count from the first letter of the chain named.

B1: CXCL9 (ligand)
chain: TPVVRKGRCSCISTNQGTIHLQSLKDLKQFAPSPSCEKIEIIATLKNGVQTCLNPDSADVKELIKKWEKQVSQKKKQKNGKKHQKKKVLKVRKSQRSRQKKTT
B2: CXCL11 (ligand)
chain: FPMFKRGRCLCIGPGVKAVKVADIEKASIMYPSNNCDKIEVIITLKENKGQRCLNPKSKQARLIIKKVERKNF
B3: CXCL11P2G (ligand)
chain: B2 chain with P2G

Assays:
[1] = target: CXCR3-A C-terminally fused with SmBiT (human) (UniProt P49682)
[2] = target: CXCR3-B C-terminally fused with SmBiT (human) (UniProt P49682)
[3] = target: untagged CXCR3-A (human) (UniProt P49682)
[4] = target: CXCR3-A C-terminally fused with SmBiT (human) (UniProt P49682); remark: listed apart in the source
[5] = target: CXCR3-B -30, C-terminally fused with SmBiT (human) (UniProt P49682)
[6] = target: CXCR3-B -40, C-terminally fused with SmBiT (human) (UniProt P49682)
[7] = target: CXCR3-B C-terminally fused with SmBiT (human) (UniProt P49682); remark: listed apart in the source

Molecule	Table 1: miniGi recruitment to CXCR3-A, EC50 of the chemokine (NanoBiT-based assay) [1]	Table 1: miniGq recruitment to CXCR3-A, EC50 of the chemokine (NanoBiT-based assay) [1]	Table 1: β-arrestin-1 recruitment to CXCR3-A, EC50 of the chemokine (NanoBiT-based assay) [1]	Table 1: β-arrestin-2 recruitment to CXCR3-A, EC50 of the chemokine (NanoBiT-based assay) [1]	Table 2: β-arrestin-1 recruitment to CXCR3-A, EC50 of the chemokine (NanoBiT-based assay, HEK293T) [1]	Table 1: β-arrestin-2 recruitment to CXCR3-B, EC50 of the chemokine (NanoBiT-based assay) [2]	Table 1: Gi2 dissociation in CXCR3-A-expressing cells, EC50 of the chemokine (NanoBRET G protein activity sensor) [3]	Table 1: Go1 dissociation in CXCR3-A-expressing cells, EC50 of the chemokine (NanoBRET G protein activity sensor) [3]	Table 1: Gq dissociation in CXCR3-A-expressing cells, EC50 of the chemokine (NanoBRET G protein activity sensor) [3]	Table 1: cAMP, EC50 of the chemokine for the reduction of intracellular cAMP in CXCR3-A-expressing cells (GloSensor) [3]	Table 1: β-arrestin-1 recruitment to CXCR3-B, EC50 of the chemokine (NanoBiT-based assay) [2]	Table 2: β-arrestin-1 recruitment to CXCR3-B, EC50 of the chemokine (NanoBiT-based assay, HEK293T) [2]	Table 3: miniGi recruitment to CXCR3-A, EC50 of CXCL11 (NanoBiT-based assay, HEK293T) [4]	Table 3: β-arrestin-1 recruitment to CXCR3-A, EC50 of CXCL11 (NanoBiT-based assay) [4]	Table 3: miniGi recruitment to CXCR3-B -30, EC50 of CXCL11 (NanoBiT-based assay, HEK293T) [5]	Table 3: miniGi recruitment to CXCR3-B -40, EC50 of CXCL11 (NanoBiT-based assay, HEK293T) [6]	Table 3: β-arrestin-1 recruitment to CXCR3-B, EC50 of CXCL11 (NanoBiT-based assay) [7]
CXCL10 (from UniProt P02778 22-98) (ligand)	18.2 nM	22.2 nM	17.8 nM	2.9 nM	10.7 nM	59.2 nM	0.9 nM	1.9 nM	2.3 nM	14.1 nM							
B1				16000 nM		100000 nM	19.9 nM	77.8 nM	56 nM	21.9 nM							
B2	12.4 nM	25.9 nM	15.8 nM	2.9 nM	9.6 nM	12.4 nM	1.2 nM	1.8 nM	0.4 nM	6.3 nM	49.4 nM	51.6 nM	18.2 nM	6.7 nM	27.2 nM	32.7 nM	23.9 nM
B3					14.8 nM							153 nM					
